Assay [1] has as its target T1, SH3i, αII-Spectrin splice variant, endogenous in adult mouse heart (mouse (endogenous in mouse heart), UniProt P16546 1-2472).
T1 construct: source: endogenous, adult mouse heart lysate
In words: co-IP; adult mouse heart lysate incubated with 5 μg purified anti-Mena, anti-αII-Spectrin or anti-SH3i antibodies, then protein A-sepharose; washed in lysis buffer; Western blot; GST-specific antibodies as control. The note with it: partners not purified. In general terms: In western blotting, separated proteins are transferred to a membrane and probed.

The target in assay [2] is T2, GST-α9A (α9 repeat of the αII-Spectrin splice variant SH3i, with the alternatively spliced 20 amino acids) (mouse, UniProt P16546 893-1088).
T2 construct: mouse αII-Spectrin, splice variant SH3i (protein ID AAI50942), amino acids Q893-E1088: the α9 repeat with the SH3 domain and the 20-residue insert T1053-L1072; numbers count on: SH3i, AAI50942; cDNA subcloned into the pGEX-6P2 vector
Nature of the assay: pull-down; 5 μg GST or equimolar GST-fusion proteins immobilised on glutathione sepharose, incubated with cleared adult mouse heart lysate (40 mM Hepes-NaOH pH 7.4, 75 mM NaCl, 1% NP40, protease inhibitors); blot with anti-Mena. The note with it: one partner purified.

B1: Mena (mammalian Enabled) (natural protein, mouse (endogenous in mouse heart), UniProt Q03173-3 1-541, looked up)
chain: MSEQSICQARAAVMVYDDANKKWVPAGGSTGFSRVHIYHHTGNNTFRVVGRKIQDHQVVINCAIPKGLKYNQATQTFHQWRDARQVYGLNFGSKEDANVFASAMMHALEVLNSQEAGPTLPRQNSQLPAQVQNGPSQEELEIQRRQLQEQQRQKELERERMERERLERERLERERLERERLEQEQLERQRQEREHVERLERERLERLERERQERERERLEQLEREQVEWERERRMSNAAAPASAETPLNPELGDSSASEPGLQAASQPAESPTPQGLVLGPPAPPPPPPLPSGPAYASALPPPPGPPPPPPLPSTGPPPPPPPPPPLPNQAPPPPPPPPAPPLPASGIFSGSTSEDNRPLTGLAAAIAGAKLRKVSRVEDGSFPGGGNTGSVSLASSKADAGRGNGPLPLGGSGLMEEMSALLARRRRIAEKGSTIETEQKEDRNEDAEPITAKAPSTSTPEPTRKPWERTNTMNGSKSPVISRPKSTPSSQPSANGVQTEGLDYDRLKQDILDEMRKELAKLKEELIDAIRQELSKSNTA
notes: mouse Mena, endogenous; two isoforms exist in the mouse heart, the general one (~80 kDa, 541 aa) and the neuronal splice variant (~140 kDa); source: endogenous, adult mouse heart lysate
B1: the “fold more Mena precipitated than by general αII-Spectrin-specific antibodies” value in assay [1] amounted to 8 fold. In addition, the “fold more Mena precipitated than by α9 or SH3” value in assay [2] was not below 10 fold.

(Values after article PMC3751641, “Mena/VASP and αII-Spectrin complexes regulate cytoplasmic actin networks in cardiomyocytes and protect from conduction abnormalities and dilated cardiomyopathy” (Cell Communication and Signaling : CCS, 2013).)
